# ± gives the uncertainty stated by the source.
# Test: self-splicing fitness, log relative to wild type (ln ratio); higher = more splicing; Tetrahymena group I intron in knt gene, E. coli kanamycin selection, DiMSum; sequences stand for … in CUCUCU…GGAGGGAAAAGUUAUCAGGCAUGCACCUGGUAGCUAGUCUUUAAACCAAUAGAUUGCAUCGGUUUAAAAGGCAAGACCGUCAAAUUGCGGGAAAGGGGUCAACAGCCGUUCAGUACCAAGUCUCAGGGGAAACUUUGAGAUGGCCUUGCAAAGGGUAUGGUAAUAAGCUGACGGACAUGGUCCUAACCACGCAGCCAAGUCCUAAGUCAACAGAUCUUCUGUUGAUAUGGAUGCAGUUCACAGACUAAAUGUCGGUCGGGGAAGAUGUAUUCUUCUCAUAAGAUAUAGUCGGACCUCUCCUUAAUGGGAGCUAGCGGAUGAAGUGAUGCAACACUGGAGCCGCUGGGAACUAAUUUGUAUGCGAAAGUAUAUUGAUUAGUUUUGGAGUACUCGUGGUCG
# Outline: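 Colonies from six replicate transformations of E. coli BL21(DE3) were pooled and amplicon-sequenced on an Illumina HiSeq 2500. The library placed an intron with all eight P1ex-region nucleotides randomised inside the knt kanamycin-resistance gene on pET-22b(+), and cells grew overnight at 37°C or 30°C on LB agar with or without 25 μg/mL kanamycin (plus 100 μg/mL carbenicillin, 50 μM IPTG, 0.2% rhamnose). Fitness is the DiMSum error-weighted combination of wild-type-normalised replicate fold changes, kanamycin versus none.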
Sequence,self-splicing fitness (ln) (30 °C),self-splicing fitness (ln) (37 °C)
AGCGAGCAAUAUUACGAACC,-2.18 ± 0.14,-0.856 ± 0.15
AUCGAGCAAUAUUACGGCAA,-2.19 ± 0.15,-2.06 ± 0.18
GUUUAGCAAUAUUACGUGCU,-2.18 ± 0.16,-1.31 ± 0.17
AAAAAGCAAUAUUACGCACA,-0.661 ± 0.067,-0.183 ± 0.087
GACCAGCAAUAUUACGAGGA,-1.04 ± 0.12,-0.408 ± 0.11
ACGAAGCAAUAUUACGGGCA,-1.46 ± 0.068,-0.631 ± 0.075
GACAAGCAAUAUUACGACAG,-4.68 ± 0.22,-2.63 ± 0.14
AGGGAGCAAUAUUACGCCUU,-3.04 ± 0.36,
GAGAAGCAAUAUUACGGGCG,-1.52 ± 0.14,-0.609 ± 0.13
CUGAAGCAAUAUUACGUGCA,-3.96 ± 0.27,-2.82 ± 0.25
GAAAAGCAAUAUUACGUGGA,-2.96 ± 0.12,-1.89 ± 0.12
ACAGAGCAAUAUUACGAGAU,-3.23 ± 0.19,-2.55 ± 0.23
AUUUAGCAAUAUUACGCUCU,0.51 ± 0.27,0.235 ± 0.44
CGUAAGCAAUAUUACGCGCC,,-1.97 ± 0.35
UGUCAGCAAUAUUACGCACA,-0.467 ± 0.083,-0.355 ± 0.093
AUUCAGCAAUAUUACGAACG,-0.206 ± 0.085,0.232 ± 0.13
GACAAGCAAUAUUACGCUAU,-1.96 ± 0.094,-1.17 ± 0.1
CAGCAGCAAUAUUACGAGCG,-0.131 ± 0.053,-0.0622 ± 0.066
GGUCAGCAAUAUUACGCGUA,-0.325 ± 0.067,-0.158 ± 0.07
AUUCAGCAAUAUUACGGCUC,-0.786 ± 0.081,-0.0849 ± 0.1

Sequence,self-splicing fitness (ln) (30 °C),self-splicing fitness (ln) (37 °C)
UCAGAGCAAUAUUACGCUAU,-3.45 ± 0.48,-2.08 ± 0.41
CAGCAGCAAUAUUACGAGUU,-3.95 ± 0.2,-2.15 ± 0.13
UCAGAGCAAUAUUACGAUCG,,-2.39 ± 0.33
AUGUAGCAAUAUUACGAUUC,-2.52 ± 0.31,-1.12 ± 0.33
AUACAGCAAUAUUACGGCAC,-1.18 ± 0.087,-0.127 ± 0.12
UAGCAGCAAUAUUACGCACU,-0.419 ± 0.086,0.238 ± 0.1
AGGCAGCAAUAUUACGUCCU,-3.02 ± 0.26,-1.29 ± 0.37
ACCGAGCAAUAUUACGUGGG,-2.62 ± 0.18,-2.87 ± 0.2
CUUCAGCAAUAUUACGUCAG,-0.735 ± 0.054,-0.0836 ± 0.082
AACCAGCAAUAUUACGCCCA,-0.618 ± 0.22,-0.865 ± 0.18
UGAAAGCAAUAUUACGGGUC,,-2.71 ± 0.25
CCAAAGCAAUAUUACGAUUU,-3.85 ± 0.2,-1.98 ± 0.19
CUGAAGCAAUAUUACGUAGC,-4.07 ± 0.28,-3.43 ± 0.24
CGGAAGCAAUAUUACGAUAU,,-2.82 ± 0.26
UUGUAGCAAUAUUACGGCUU,-1.41 ± 0.12,0.113 ± 0.14
AGUGAGCAAUAUUACGUGAC,-2.02 ± 0.35,-2.39 ± 0.32
CGUCAGCAAUAUUACGCCGU,-2.49 ± 0.12,0.143 ± 0.11
UGAUAGCAAUAUUACGCCUC,-3.09 ± 0.32,-1.34 ± 0.39
GGGCAGCAAUAUUACGGCAU,0.216 ± 0.12,-0.928 ± 0.12

# From the supplement of paper PMC7877785
